The results in this text go back to the DeepSol protein solubility set.

The series in a line: soluble on expression in E. coli; label from the status in PepcDB or PDB records.
As to “MSNTSSSHNTAFTPSSPAERYAQALASGQFMPDEAQAQAVQELERVWQELLSRYKASKKAFRRFRRQTSPKGVYMWGGVGRGKTWLMDQFYDSIPFRRKTRMHFHHFMQHVHRELNKLSGQRNPLDLVADQIYKDAVIICFDEFFVSNVTDAMILSDLFQKLFNRGVTLVATSNIAPDGLYKNGIHRDRFLPTIELVQKNCTILNVDAGVDYRLRVLKQAQLFKHPLTDDAKIWMSQRFSAITRSQIVSQQPITINNRVVETLGHTEDVLWCEFSELCLKPRSPADFIEIANIYNTVLVSNVPHLTDYLSEGTRRFIYLVDEFYDRGVKLLLTSQDSIIEIYEGEKLAFEIERTRSRLLEMQSDEYLHSEHRHINSENNSLEHHHHHH”, the “soluble on expression in E. coli” value was “not soluble”.

As to “MGSDKIHHHHHHMNDIIKLIKSIIIEMDMEAYIVGGYIRDKLMNPKNSASDLDIAFQGDFEKILDELRKRKIKVSSIKKDSSVYRITVNGYCADISKIKGKNINEDLSKRDFTVNAIALDIKNNKIVDPFDGRVHIKRRILQVIDEKSFEDDAVRILRGIRFYIKYGMHFNGYTEEYIRKHSKNIMKFPRDRVLDEIIHIIHEDENGVFFEVMDQYMILKNILPYMEELKTVGKCKHHLVDAFTHMNTAYHVFKDMKKKYLKVKNINIEEFNKDIGVYNELDYLAFAIFTHDIGKYVSYKKEGQKISFKGHDEKGLEIIEKVCDELKFPNDGKKIVCSVVKNHMYPLMLFKLKEDERKQEEYEFFNKFDQYVPHIIVASFCDVYATTIYIDENNEKDRFTSFISELVVKYREFINLKKIKYIDGNDLIDMGFRGNDIGNILNELNKMLYIEGSKTKKEQQDFVLRMKDKL”, the “soluble on expression in E. coli” value is reported as “not soluble”.

“MSLVVGTDAHKYSHTFVATDEVGRQLGEKTVKATTAGHATAIMWAREQFGLELIWGIEDCRNMSARLERDLLAAGQQVVRVPTKLMAQTRKSARSRGKSDPIDALAVARAVLRETDLPLATHDETSRELKLLTDRRDVLVAQRTSAINRLRWLVHELDPERAPAARSLDAAKHQQALRTWLDTQPGLVAELARAELTDIIRLTGEINTLAQRISARVHQVAPALLEIPGCAELTAAKIVGEAAGVTRFKSEAAFACHAAVAPIPVWSGNTAGQMRLSRSGNRQLNAALHRIALTQIRMTDSRGQAYYQRLQDAGKTKRAALRCLKRRLARTVFQALRTVHQPSSEHTQPAAACHRSYCSSHLGEPPRLTDMTQKTRIQPLPPKRAGLLIRALYRIAKRRFGEVPEPFTVTAHHRRLLIANVVHEALLQRASRKLPPSVRELAVFWTARSIGCSWCVDFGAMLQRLDGLDVDRLTDIDNYATSSKFSDDERAAIAYAEAMTADPHSVTDEQVADLRARFGEAGVIELTYQIGVENMRARMNSALGITEQGFNSGDACRVPWAAPDVPSAESREGHHHHHH”: the “soluble on expression in E. coli” value is listed as “not soluble”.

Regarding “GPGSMDAGSDEAVQKKMQEFLSKDAMEELRNIGDRTESRVRHGLLPRDYQQQQHQKDYQTANVTHEEEVNSYIQQRRTWRENVFLLRDFEYWRLRAEYYPYVRRGDEQNDNFFIRGIACHPRLSDYPMCRKPIQDYFVCRDKNKILQLFNLCAPMKEQFCACINEVFVKNHERGDKKFNAQRNEYFEEQRNRRLSKMMAHVEDSMEKRKKLQD”, the “soluble on expression in E. coli” value was “not soluble”.

For the sequence “MGSDKIHHHHHHMTKSLITGANGFVGSAVTRCLLEAGHEVRCLVRPGSDRRNLDKLPVEISEGDLRSASSLKRAVAGCDNLFHVAADYRLWVPNPDTMYEINVKGTRALVLAAAEAGMKRMVYTSSVATLGTAENGVPADEDTPSSLGSMCGHYKRSKFMAEEIVQQMTREHDLPMVIVNPSTPIGPRDIKPTPTGRLVVDTLRNRMPAYVNTGLNIVHADDIAEGHLLAYKHGKPGERYILGGENMTLLQILQKIDEIRGRRIRRLGLPVKLMVPAAWLMEKMSTVTKVEPRATVDSVSMAKKKMFYSSDKAVRELGYRYRPAAAALEDAMNWFQANGYCG”, the “soluble on expression in E. coli” value is given as “not soluble”.

Take “MGSDKIHHHHHHMRSLSEFIENSQDKREIQRALAVKMLLEGYTHVAIQSILDVSSGFISKWKKAFFTFGVEGLKLRYKGSQGFLNPQQRYCVIEWLKTKEKWNLSELEYEIASSYGVVFESKQSYYDLFDAAGISWKKTQAHNPKYDEELVASKKKEICELLETRRSEIESGKLVVFMVDECHLLWGDICGYVWGKTSERISVPVVNARDKQTYFGAIDYKTHEFITYAAKKGDSQNMINFLEYLQSQRPGANLLIIWDGASYHRSNAIQDYLDSLNRQLEQEQWLITCKRFAPNAPQQNPVEDIWLQAKKLIREFYFFCHSFSVVKALFELAVNGQIFDFPKLNEYGNFSQMI”: the “soluble on expression in E. coli” value is listed as “not soluble”.

Turning to “MKEVEKNEIKRLSDRLDAIRHQQAGLSLVESADKYAELEKEKETLEAEIIRLREVHSQKLSKEAQKLMNLPFRRAITKKEQADMGKLKKSVRGLIVVHPMTALGREMGLKEMTGFAKSEF”, the “soluble on expression in E. coli” value was “not soluble”.

Consider “MSLATTSTEPPTELSGEITMWHSFTQGPRLESIQKSADAFMQKHPKTKIKIETFSWNDFYTKWTTGLANGNVPDISTALPNQVMEMVNSDALVPLNDSIKRIGQDKFNETALNEAKIGDDYYSVPLYSHAQVMWVRTDLLKEHNIEVPKTWDQLYEASKKLKEAGVYGLSVPFGTNDLMATRFLNFYVRSGGGSLLTKDLKADLTSQLAQDGIKYWVKLYKEISPQDSLNFNVLQQATLFYQGKTAFDFNSGFHIGGINANSPQLIDSIDAYPIPKIKESDKDQGIETSNIPMVVWKNSKHPEVAKAFLEALYNEEDYVKFLDSTPVGMLPTIKGISDSAAYKENETRKKFKHAEEVITEAVKKGTAIGYENGPSVQAGMLTNQHIIEQMFQDIITNGTDPMKAAKEAEKQLNDLFEAVQEGHHHHHH”, for which the “soluble on expression in E. coli” value is “soluble”.

For the sequence “GSHSLRYFYTAVSRPGLGEPRFIAVGYVDDTEFVRFDSDAENPRMEPRARWMEREGPEYWEQQTRIAKEWEQIYRVDLRTLRGYYNQSEGGSHTIQEMYGCDVGSDGSLLRGYRQDAYDGRDYIALNEDLKTWTAADFAAQITRNKWERARYAERLRAYLEGTCVEWLSRYLELGKETLLRSDPPEAHVTLHPRPEGDVTLRCWALGFYPADITLTWQLNGEDLTQDMELVETRPAGDGTFQKWASVVVPLGKEQNYTCRVEHEGLPKPLSQRWEPLLEHHHHHH”, the “soluble on expression in E. coli” value is “soluble”.

Turning to “MSRRLFGRLREALNRASEHIARGIVDTLAYKELKPEDLEPVLDDILIDLVESDVALEAAESIVAGVKEGLTGYRVRRGEPVEKVVRDALRKALLTLLDPGPRPDLAAEARRRCGGRPLVILFLGVNGTGKTTTIAKVAYMLRKAGVTPVIAAADTFRAGAQEQLAVHAEKLGVPIVRGRYGGDPASVAYDAVKHAESRGFCAVLVDTAGRMHVDSNLVEELRKIVRVVKPDYKILVVDSLTGNDAVEQARLFDEAVGVDGVIVTKVDADPKGGTLVSVAHAIRKPILYIGTGQRYEDLRPFDPQKIVDQLLG”, the “soluble on expression in E. coli” value is reported as “soluble”.

As to “MHHHHHHSSGRENLYFQGNAVLTWNNEILPNWETMWCSRKVRDLWWQGIPPSVRGKVWSLAIGNELNITHELFDICLARAKERWRSLSTGGSEVENEDAGFSAADREASLELIKLDISRTFPNLCIFQQGGPYHDMLHSILGAYTCYRPDVGYVQGMSFIAAVLILNLDTADAFIAFSNLLNKPCQMAFFRVDHGLMLTYFAAFEVFFEENLPKLFAHFKKNNLTPDIYLIDWIFTLYSKSLPLDLACRIWDVFCRDGEEFLFRTALGILKLFEDILTKMDFIHMAQFLTRLPEDLPAEELFASIATIQMQSRNKKWAQVLTALQKDSREMEKG”, the “soluble on expression in E. coli” value was “soluble”.

Take “MGGSHHHHHHGMASLGMIKNSLFGSVETWPWQVLSKGDKEEVAYEERACEGGKFATVEVTDKPVDEALREAMPKVAKYAGGTNDKGIGMGMTVPISFAVFPNEDGSLQKKLKVWFRIPNQFQSDPPAPSDKSVKIEEREGITVYSMQFGGYAKEADYVAQATRLRAALEGTATYRGDIYFCTGYDPPMKPYGRRNEIWLLKT”: the “soluble on expression in E. coli” value is recorded as “not soluble”.

“MDGDGSSFEQFIMPPSALDRLASLHIEYPMLFQLSNVSVEKTSHCGVLEFTADEGLVYLPYWMMQNMSLEEGDVMQVKNISLVKGTYIKLQPHTQDFLDISNPKAILETTLRSYSCLTTGDTIMVPYNNKQYYINVVEAKPSSAVSIIETDCEVDFAPPLDYKEPEKPQKLTPSNKRPLQVKEEEEPASKVPKFTPFTGSGKRLDGKAQTQTEPEDTKQQEKPTENGKDDEKLSVTTPRQISGKLVFGSNSKSAAKETAKVDDPKNIVQESSTKSDEAKFKVFTGKKYSLNG”: the “soluble on expression in E. coli” value is recorded as “soluble”.

As to “MTVSREVELEGHIIDSGMMQSCFGIIMDLGGSFSVQKFDIGRHKDEESYARMLVEADDEAQLQSIVHELHQHGVNPSDPKDATLVPAPDDQVVPHGFYSTTNHPLEHHHHHH”, the “soluble on expression in E. coli” value was “not soluble”.

For the sequence “DPAAADRAEELRIQNLLKQLQQAVTNNDLTIYYQPIMSLQQQSLELYQIYIGLHGDEELISSVTLLEIAKKRELIAQIDRWVVARAIAQIGERQRAGHTTHLLVQIDSASFTDPQLLTMLRTELAAHHVRGEQLWLQTPESKVFTHLYNAQQFLSEISVQGCKMGLEQFGTGLDSFQLLTHFKPAFLKLDRNLTQDINSNHDSLEKIREITSRAQDNGIATFAEFVTDSTSMSALFKVGVDYVQGDFVAPI”, the “soluble on expression in E. coli” value is recorded as “not soluble”.

For “MSLKDLVVGMELGYPPFEMSDKTGKASGISVDFLEAFAKKNGYKLVVKNIAWDGLIPALKTAKIDLIMSSMTITDKRKKVVDFSIPYAKANLAILTPLNSDITNIKDLDKKGKVLALKRGSTGHLYAVKNLKNATINLFDKENAAILEVIQGKADGFFYDQLTIYRTWQKHQDTTRAILAPFQENPEFWGIAVRKGDEALKDKLDNFIDESRKNGFLDFLGNKYLKDIKEGHHHHHH”, the “soluble on expression in E. coli” value was “soluble”.

Consider “MQRARCYLIGETAVVLELEPPVTLASQKRIWRLAQRLVDMPNVVEAIPGMNNITVILRNPESLALDAIERLQRWWEESEALEPESRFIEIPVVYGGAGGPDLAVVAAHCGLSEKQVVELHSSVEYVVWFLGFQPGFPYLGSLPEQLHTPRRAEPRLLVPAGSVGIGGPQTGVYPLATPGGWQLIGHTSLSLFDPARDEPILLRPGDSVRFVPQKEGVC”, for which the “soluble on expression in E. coli” value is reported as “soluble”.

Turning to “MGSDKIHHHHHHMKVRFLQISDLHFQFQNYDTIVMRDKLLDFIEVLRRESDFDFLLLTGDIAHKGDVYNEDVKEYLNGIIKSMGLSKNNVHLVPGNHDISRDMTRTLLIDSIMKSPNPSEMLDKLDQKATNILVEGQRKFFDFYEDFMGVKYPEEDLHFLYQSEKYNVLSINTCLLSDKKGEEGTLLTAQMKLYKAIRKMNKEKNKGKVLNIAIGHHTLGCIESSERESIKAHFDDYFIDLYLAGHVHDSSFNITANTNENPFLELVSGAIIKDEYATPEFISVDVNLDNGETEVTYYIWNTEYKYWSKNNQGGRRLQEGKLNYKINRLESLIEKEIEDNDDKIDEDEFKSFIIDFHEYRESYKTFTSNFDNQIGLDKKFYDMKSGETFKRKFDSYSEYFGVINHIMDSTSYVSADKKELIAETIVDKYLEFHNQYNNGDEIFVKIVNEIYLECHSVLPYSKALTKKYIKILTCWCIYECEIFNDNKRSVKND”, the “soluble on expression in E. coli” value is listed as “not soluble”.

On to “MAHHHHHHSLKIRQARLEDLDRIVELEFENFSVEEAIPPSVFEAHLREIQTSFLVAEKEGRIMGYIEGPVGLHRHLQDQSFTEEIKDYSHEPGGYISVTCLSIAKEAQGLGLGQKLLTALKEVALEDERDGINLTCHDYLIAYYEKHGFVNEGQSQSTFAGETWYDMVWEMKKEG”, for which the “soluble on expression in E. coli” value is “not soluble”.
